These results are taken from the nanobody polyreactivity screen of Harvey et al. (2022).

The nature of the data set: yeast display, Sf9 membrane polyspecificity reagent, FACS + sequencing; frameworks hold sequencing errors. The essentials:
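A synthetic nanobody library was expressed on Saccharomyces cerevisiae BJ5465 by galactose induction for 36–48 hours. The library was stained for 1 hour at 4 °C with 10% biotinylated, detergent-solubilized Sf9 membrane reagent and enriched with streptavidin microbeads before FACS. Low and high (top ~1%) gates were set on anti-HA fluorescence for expression and streptavidin fluorescence for reagent binding, and each polyreactivity label reflects the gate of origin.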
On to “QVQLVESGGGLVQAGGSLRLSCAASGRTVVTNAMGWYRQAPGKERELVATINWSGGRTHYADSVKGRFTISRDNAKITVYLQMNSLIPEDTAVYYCAKASSRRYWTIRDGDYWGQGTQVTVAS”, for which the “polyreactivity (PSR sort gate)” value was “low polyreactivity”.

With “QVQLVESGGGLVQAGGSLRLSCAASGRTYGGNAMGWYRQAPGKERELVAAITVSAGHTYYADSVKGRFTISRDNAKNTVYLQMKSLKPEDTAVYYCAKVYHWYYSYDYWGQGTQVTVSS”, the “polyreactivity (PSR sort gate)” value is on record as “low polyreactivity”.

Turning to “QVQLVESGGGLVQAGGSLRLSCAASGRTYGNYAMGWSRPAPGKERELVAGITYRSGRTYYADSVKGRFTISRDNAKITFYLQMNSLKPEDTAVYYCAAASYYLTPKHDYWGQGTQVTVSW”, the “polyreactivity (PSR sort gate)” value was “high polyreactivity”.

In the case of “QVQLVESGGGLVQAGGSLRLSCAASGRTYGWYAMGWYRQAPGKERELVAAIRSSGGRTHYADSVKGRFTISRDNAKNTVYLQMNSLKPEDTAVYYCAARYSAAYYWGQGTQVTVSS”, the “polyreactivity (PSR sort gate)” value is listed as “high polyreactivity”.

With “QVQLVESGGGLVQAGGSLRLSCAASGRTYINNAMGWYRQAPGKERELVAAISRRGGSTYYADSVKGRFTISRDNAKNTVYLQMNSLKPEDTAVSYCAADAFRSQRPYTYDYWGQGTQVTVSS”, the “polyreactivity (PSR sort gate)” value is given as “high polyreactivity”.

On to “QVQLVESGGGLVQAGGSLRLSCAASGRTYKINAMGCYRQAPGKERELVASISRTGGTTYYADSVKGRFTNSRDNAKNTVYLQMNSLNPEDTAVYYCAVSDFGLLDCLTIYDEYDYWGQGTQVTVSS”, for which the “polyreactivity (PSR sort gate)” value is given as “high polyreactivity”.

Regarding “QVQLVESGGGLVQAGGSLRLSCAASGRTYNPYAMGWYRQAPGKERELVAVISSIGGSTYADSVTGRFTISRDNAKNTVYLQMNSLKTEDTAVFYCNRATFGQWGGDYWGQGTQVTVSS”, the “polyreactivity (PSR sort gate)” value is “high polyreactivity”.

Regarding “QVQLVESGGGLVQAGGSLRLSCAASGRTYRSYTMGWYRQAPGKERELVASISRRGGSTYYADSVKGRFTISRDNAKNTVYLQMNSLKPEDTAVYYCAAVNVYDAYEYWGQGTQVTVSS”, the “polyreactivity (PSR sort gate)” value is given as “high polyreactivity”.

In the case of “QVQLVESGGGLVQAGGSLRLSCAASGRTYSRNAMGWYRQAPGKERELVATISRGGGITFYADSVKGRFTISRDNAKNTVYLQMNSLKPEDTAVYYCAAQYYYWTRRPGDYWGQGTQVTVSS”, the “polyreactivity (PSR sort gate)” value is “high polyreactivity”.

As to “QVQLVESGGGLVQAGGSLRLSCAASGRTYVVKAMGWYRQAPGKERELVAAIIRGNTYYADSVKGRFTISRDNAKNTVYLQMNSLKPEDTAVYYCAARYSPYKYYYWGQGTQVTVSS”, the “polyreactivity (PSR sort gate)” value is “high polyreactivity”.

For the sequence “QVQLVESGGGLVQAGGSLRLSCAASGRTYYGNAMGWYRQAPGKERELVAAITSGGGSTRYADSVKGRFTISRDNAKNTVYLQMNSLKPEDTAVYYCNATLGNFGYRRYSGHTRYYYWGQGTQVTVSS”, the “polyreactivity (PSR sort gate)” value was “high polyreactivity”.

As to “QVQLVESGGGLVQAGGSLRLSCAASGRVYAMGWYRQAPGKERELVAPITTSGGRTYYADSVKGRFTISRDNAKNSVYCQMNSLKPEDTAVYYCNKPGYPPSDMYYWGQGTQVNVSS”, the “polyreactivity (PSR sort gate)” value is “low polyreactivity”.

Take “QVQLVESGGGLVQAGGSLRLSCAASGSFINRYAMGWYRQAPGKERELVAAITQSGGRTYYADSVKGRFTISRDNAKNTVYLQMNSLKPEDTAVYYCNAVRWYLYDYWGQGTQVTVSS”: the “polyreactivity (PSR sort gate)” value was “high polyreactivity”.

Regarding “QVQLVESGGGLVQAGGSLRLSCAASGSICDRNAMGWYRQAPGKERELVANITWSGVSTYYADSVKGRFTMSRDNAKNTVYLQMNSLKPDDTAVYYCNADYSYRHWYDPGQYGQAMGYWGQGTQVTVSS”, the “polyreactivity (PSR sort gate)” value is reported as “low polyreactivity”.

Consider “QVQLVESGGGLVQAGGSLRLSCAASGSICGPYALGWYRQAPGKERELVAAITWTGGRTYYADSVKGRFTISRDNAKNTVYFQMNSLKPEDTAVYYCAADYSPSTWYLYYTLYYYWGQGTQVTVSS”, for which the “polyreactivity (PSR sort gate)” value was “low polyreactivity”.

As to “QVQLVESGGGLVQAGGSLRLSCAASGSIFAANAMGWYRQAHGKERELVAAISWSGGYTYADSVKGRFTISRDNAKNTVYLQMKSLKPEDTAFYYCAADLWSQYKFGYWGQGTLVTVSS”, the “polyreactivity (PSR sort gate)” value is on record as “low polyreactivity”.
